This note sets out measurements from patent US20210292393A1 (published 2021).

Like-named read-outs stand apart in the source and are kept apart here.

Test in all cases: BLI
On the technique in general: Biolayer interferometry detects binding as a change in optical thickness at a sensor tip.

Assay [1] addresses T1, SARS-CoV-2 spike ectodomain (UniProt P0DTC2 14-1213).
Assay [2] concerns the target T1, SARS-CoV-2 spike ectodomain. The source holds these as a separate data set.
For assay [3] the target is unchanged. This is another data set of the same source.

B1: Fab 483 (Fab, V domains shown)
VH: QVQLQESGPGLVKPSETLSLTCTVSGGSISSYYWSWIRQPPGKGLEWIGYIYYSGSTNYNPSLKSRVTISVDTSKNQFSLKLSSVTAADTAVYYCARAPEEKSSEIGELVGWGWFDPWGQGTLVTVSS
VL: not shown
The Kd is the free concentration of one partner at which half of the binding sites on the other are occupied at equilibrium, for simple one-to-one binding. A high value points to a looser complex. In the case of B1, the equilibrium dissociation constant (Kd) in assay [1] was found to be 23.1 nM. That is a double-digit nanomolar value.

B2: Fab 419 (Fab, V domains shown)
VH: QVQLVQSGAEVKKPGASVKVSCKASGYTFTSYYMHWVRQAPGQGLEWMGIINPSGGSTSYAQKFQGRVTMTRDTSTSTVYMELSSLRSEDTAVYYCARDWTQSSGYDYYYGLDVWGQGTTVTVSS
VL: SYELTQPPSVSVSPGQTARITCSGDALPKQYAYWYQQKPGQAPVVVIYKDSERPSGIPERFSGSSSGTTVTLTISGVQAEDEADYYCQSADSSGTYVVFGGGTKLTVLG
Regarding B2, binding in assay [2] was put at a Kd of 365 nM.

B3: Fab 494 (Fab, V domains shown)
VH: EVQLVESGGGLVQPGGSLRLSCAASGFTVSSNYMSWVRQAPGKGLEWVSVIYSGGSTFYADSVKGRFTISRDNSKNTLYLQMNSLRAEDTAVYYCARDSGDQLLDYWGQGTLVTVSS
VL: DIQLTQSPSFLSASVGDRVTITCRASQGISSYLAWYQQKPGKAPKLLIYAASTLQSGVPSRFSGSGSGTEFTLTISSLQPEDFATYYCQQLNSYPPFTFGPGTKVDIKR
In the case of B3, binding in assay [3] was put at a Kd of 5.9 nM.
